By Kd is commonly meant the concentration at which binding is half-saturated. In general, IC50 refers to the concentration that inhibits the measured activity by half.

One experiment deals with T1, VGFW1 (human, UniProt P17948 27-338, limits assumed).
T1 construct: construct of the HDX-MS work; also called VEGFR1 (VGFW1)
Kind of experiment: HDX-MS. A digest of the protocol:
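Hydrogen-deuterium exchange mass spectrometry mapped antibody binding on a recombinant VEGFR1 antigen. The read-out is the change in free energy per segment upon antibody binding. Segments above 2 kcal/mol count as strong epitopes and segments at 1-2 kcal/mol as weak ones.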

Experiment [1] deals with cynomolgus monkey VEGFR1 (soluble antigen of the KinExA and SPR affinity assays) (cynomolgus monkey). Kind of experiment: KinExA, solution. How it is done:
(§1) Kinetic exclusion assay (KEA; KinExA) was used to analyze the binding of anti-VEGFR1 antibodies to human, mouse and cynomolgus monkeys VEGFR1. KEA is a fluorescence-based solution method, and it is described in detail in the literature (Darling and Brault, 2004). To measure the affinity of an interaction, a series of solutions with a fixed concentration of one interactant (A) and varying concentrations of another interactant (B) are prepared and allowed to reach equilibrium. After equilibration, the concentration of free A is determined by flowing the equilibrated mixture through a column packed with beads modified with reactant B. Free A binds to the beads and is then detected using a fluorescently labeled polyclonal antibody.
(§2) Briefly, fixed concentrations (300 pM, 60 pM, 12 pM, 2.4 or 0.5 pM) of Ab were used to prepare a serial dilution of the antigen (2 nM to 0.52 pM, or 800 pM to 5.37 fM). The complex titrations were incubated at RT to reach binding equilibrium for at least 2 days. After incubation, the samples were run on the KinExA3200 or KinExA4000 instrument to assess free antibody in the reaction. During these studies some of the data were rejected because the experiments failed or failed the acceptance criteria. For mouse VEGFR1 the 60 and 300 pM concentrations were rejected due to high titrant related NSB. The dissociation equilibrium constant, (KD), was determined using the n-curve analysis feature of the KinExA Pro software. This program uses nonlinear least-square regression analysis of the globally fitted data to a 1:1 binding model. (CI=confidence interval).
For orientation: Kinetic exclusion samples the free partner from a solution-phase mixture.

The target of experiment [2] is T2, mouse VEGFR1 (soluble antigen of the KinExA and SPR affinity assays) (mouse, UniProt P35969 23-759, limits assumed).
T2 sequence (looked up): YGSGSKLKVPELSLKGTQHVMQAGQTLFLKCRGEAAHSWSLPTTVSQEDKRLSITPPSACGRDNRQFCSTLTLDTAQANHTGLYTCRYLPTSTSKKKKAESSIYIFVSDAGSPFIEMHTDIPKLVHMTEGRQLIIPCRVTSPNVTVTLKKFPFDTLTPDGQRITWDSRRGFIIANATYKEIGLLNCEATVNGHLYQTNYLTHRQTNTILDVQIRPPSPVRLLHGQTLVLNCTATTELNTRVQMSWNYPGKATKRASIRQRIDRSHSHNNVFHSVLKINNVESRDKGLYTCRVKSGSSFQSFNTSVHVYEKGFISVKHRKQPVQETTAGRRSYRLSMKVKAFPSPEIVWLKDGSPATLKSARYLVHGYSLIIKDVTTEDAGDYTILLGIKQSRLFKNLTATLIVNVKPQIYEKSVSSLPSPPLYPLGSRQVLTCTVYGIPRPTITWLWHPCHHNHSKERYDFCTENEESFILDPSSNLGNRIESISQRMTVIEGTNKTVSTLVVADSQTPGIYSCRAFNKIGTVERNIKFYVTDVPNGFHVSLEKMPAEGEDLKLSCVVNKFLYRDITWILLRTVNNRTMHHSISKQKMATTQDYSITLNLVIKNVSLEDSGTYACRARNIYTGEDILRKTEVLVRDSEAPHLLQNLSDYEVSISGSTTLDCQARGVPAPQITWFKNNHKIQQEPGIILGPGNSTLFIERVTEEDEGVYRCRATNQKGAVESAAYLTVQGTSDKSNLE
Kind of experiment: KinExA, solution. How it is done: as §1, §2

Experiment [3] addresses T3, NECTIN1 Isoform Gamma (NM_203286.1) (human, UniProt Q15223-3 31-352).
T3 construct: whole, on cells
T3 sequence (looked up): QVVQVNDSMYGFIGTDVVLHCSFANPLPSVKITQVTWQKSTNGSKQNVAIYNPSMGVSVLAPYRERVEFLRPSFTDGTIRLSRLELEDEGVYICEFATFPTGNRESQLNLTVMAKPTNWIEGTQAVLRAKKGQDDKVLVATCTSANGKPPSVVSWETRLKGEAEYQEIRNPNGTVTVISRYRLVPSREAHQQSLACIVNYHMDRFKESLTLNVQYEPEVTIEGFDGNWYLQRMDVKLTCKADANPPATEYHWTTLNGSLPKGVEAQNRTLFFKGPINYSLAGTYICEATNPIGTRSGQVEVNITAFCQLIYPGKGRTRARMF
Description: Retrogenix cell microarray, fixed HEK293 cells; blank cells in Table 32 (topology TS and S). How it is done: This human cell microarray methodology has been previously described in the literature (Freeth, J. et al, SLAS Discovery, 25 (2), 223-230, 2020). Primary screening was performed on slides arrayed with fixed HEK293 cells with each spot of HEK293 cells expressing either a unique protein from the cell surface-ome, a cell surface tethered human secreted protein, or a heterodimeric human cell surface receptor. In total, 5,528 unique gene products were represented in this primary screen (4,103 human plasma membrane proteins (+some untethered secreted proteins)+1,425 cell surface tethered human secreted proteins). Briefly, slides containing fixed transfected HEK293 cells were overlaid with a solution of test antibody (2 μg/mL), incubated, and washed. Binding was assessed using AlexaFluor647-conjugated anti-human IgG Fc detection antibody and fluorescence quantitation on ImageQuant. […] Located in the ER, off-target binding to CRELD2 was of less concern. Nectin-1, FGFR2, and ISLR, on the other hand, display broad tissue expression profiles. Cross-reactivity to these proteins is undesirable because binding to these targets might have a significant impact on pharmacokinetic and biodistribution profiles of the molecules. This off-target binding was subsequently confirmed by flow cytometry on live HEK293 cells transiently expressing these ‘off-target’ proteins identified in the primary screen.

The target of a further experiment is His tagged cyno VEGFR1 (cynomolgus monkey, UniProt A0A2K5VAF2 27-758). Kind of experiment: MSD ECL competition on plate-bound His-tagged cyno VEGFR1; competitor biotin human VEGFA165 (0.2 nM). The method in brief:
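IC50 and maximal percent inhibition come from electro-chemiluminescence readings of bound ligand, detected with Sulfo-tagged streptavidin on an MSD SECTOR S 600 imager. Receptor (human or mouse VEGFR1-Fc, or His-tagged cyno VEGFR1, 0.5 ug/ml) was captured for 1 hour at room temperature on Protein A/G- or anti-His mAb-coated MSD 384 plates blocked with Blocker A. Half-log antibody dilutions were pre-incubated for 30 minutes before biotinylated VEGFA (0.2 nM) or PlGF (2 nM) was added.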

T1 sequence (P17948 27-338 limits assumed): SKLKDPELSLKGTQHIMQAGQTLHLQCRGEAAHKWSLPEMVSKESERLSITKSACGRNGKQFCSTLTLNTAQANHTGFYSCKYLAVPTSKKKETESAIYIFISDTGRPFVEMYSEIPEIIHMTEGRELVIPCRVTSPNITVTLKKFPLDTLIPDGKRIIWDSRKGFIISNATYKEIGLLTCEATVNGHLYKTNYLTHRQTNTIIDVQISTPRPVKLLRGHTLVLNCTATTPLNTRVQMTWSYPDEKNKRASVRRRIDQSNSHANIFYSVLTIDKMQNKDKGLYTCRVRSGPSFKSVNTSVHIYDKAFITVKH

B1: VGFB82 (antibody, human IgG1, lambda, L234A L235A, V domains shown)
VH: EVQLLESGGGLVQPGGSLRLSCEASGFDFSTYAMNWVRQAPGKGLEWVATINSEGTITSHAPAVKGRFTISRDNSKNTAYVQMNSLRAEDSAVYYCSSTTGTTHGMDVWGRGTTVTVSS
VL: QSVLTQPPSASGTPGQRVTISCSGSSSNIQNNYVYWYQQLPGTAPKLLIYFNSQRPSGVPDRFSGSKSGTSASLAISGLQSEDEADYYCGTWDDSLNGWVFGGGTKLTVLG
notes: human IgG1 (L234A/L235A/D265S)
In the case of B1, in the experiment with VGFW1, the “Free energy change upon binding (ΔΔG), VEGFR1 segment 141-147” value is -0.6 kcal/mol; the “Free energy change upon binding (ΔΔG), VEGFR1 segment 147-153” value was -0.1 kcal/mol; the “Free energy change upon binding (ΔΔG), VEGFR1 segment 172-177” value is -0.6 kcal/mol; the “Free energy change upon binding (ΔΔG), VEGFR1 segment 178-199” value is -1 kcal/mol. In addition, in the experiment with VGFW1, the “Free energy change upon binding (ΔΔG), VEGFR1 segment 200-200” value was -0.5 kcal/mol; the “Free energy change upon binding (ΔΔG), VEGFR1 segment 201-204” value was -3.3 kcal/mol; the “Free energy change upon binding (ΔΔG), VEGFR1 segment 211-215” value is -0.1 kcal/mol; the “Free energy change upon binding (ΔΔG), VEGFR1 segment 218-228” value was -0.3 kcal/mol. In addition, the equilibrium dissociation constant (Kd) in experiment [1] stood at 0.0003 nM. For the same molecule, the Kd in experiment [2] turned out to be 0.023 nM. In addition, in experiment [3], the binding result is reported as “no binding (tested: 2 µg/mL)”. Also, in the experiment with His tagged cyno VEGFR1, the half-inhibitory concentration (IC50) is 0.081 nM and the “Max % Inh.” value was 99%.

B2: VGFB54 (antibody, human IgG1, lambda, L234A L235A, V domains shown)
VH: EVQLLESGGGSVQPGGSLRLSCTASGFNFEDYGMNWVRQAPGKGLDWVSSINRNGDISTYHVDSVKGRFTISRDNSKNTLYLQMNSLRAEDTAIYYCTKNHDYHGMDVWGQGTTVTVSS
VL: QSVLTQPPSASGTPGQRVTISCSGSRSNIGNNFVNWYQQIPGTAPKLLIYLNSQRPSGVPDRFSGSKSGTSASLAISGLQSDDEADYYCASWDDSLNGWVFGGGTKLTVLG
notes: human IgG1 (L234A/L235A/D265S), lambda, 2H:2L; from OmniChicken
For the molecule B2, in the experiment with VGFW1, the “Free energy change upon binding (ΔΔG), VEGFR1 segment 141-147” value was -0.2 kcal/mol; the “Free energy change upon binding (ΔΔG), VEGFR1 segment 147-153” value is -0.4 kcal/mol; the “Free energy change upon binding (ΔΔG), VEGFR1 segment 172-177” value is -2.6 kcal/mol; the “Free energy change upon binding (ΔΔG), VEGFR1 segment 178-199” value is -0.3 kcal/mol. Moreover, in the experiment with VGFW1, the “Free energy change upon binding (ΔΔG), VEGFR1 segment 200-200” value is -1.4 kcal/mol; the “Free energy change upon binding (ΔΔG), VEGFR1 segment 201-204” value is -3.6 kcal/mol; the “Free energy change upon binding (ΔΔG), VEGFR1 segment 211-215” value is -0.1 kcal/mol; the “Free energy change upon binding (ΔΔG), VEGFR1 segment 218-228” value is -0.7 kcal/mol. For the same molecule, the binding result in experiment [3] is listed as “no binding (tested: 2 µg/mL)”. In the experiment with His tagged cyno VEGFR1, the IC50 was 0.089 nM and the “Max % Inh.” value is 98.6%.

B3: VGFB71 (antibody, human IgG1, lambda, L234A L235A, V domains shown)
VH: EVQLLESGGGLVQPGGSLRLSCEASGFIFRDYNMNWVRQAPGKGLEWVSIITNDGSSTAYSDSVKGRFTISRDNSKNSLYLQMNSLRAEDTAIYYCVKVYYGMDDWGQGTTVTVSS
VL: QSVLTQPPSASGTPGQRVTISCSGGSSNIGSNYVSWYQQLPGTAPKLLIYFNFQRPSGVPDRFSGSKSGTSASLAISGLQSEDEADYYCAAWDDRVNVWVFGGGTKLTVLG
notes: as for B1
On to B3, for which, in the experiment with VGFW1, the “Free energy change upon binding (ΔΔG), VEGFR1 segment 141-147” value was -0.3 kcal/mol; the “Free energy change upon binding (ΔΔG), VEGFR1 segment 147-153” value is -1.2 kcal/mol; the “Free energy change upon binding (ΔΔG), VEGFR1 segment 172-177” value was -4.2 kcal/mol; the “Free energy change upon binding (ΔΔG), VEGFR1 segment 178-199” value was determined as 0 kcal/mol. For the same molecule, in the experiment with VGFW1, the “Free energy change upon binding (ΔΔG), VEGFR1 segment 200-200” value was -2.8 kcal/mol; the “Free energy change upon binding (ΔΔG), VEGFR1 segment 201-204” value was -2.8 kcal/mol; the “Free energy change upon binding (ΔΔG), VEGFR1 segment 211-215” value was -0.1 kcal/mol; the “Free energy change upon binding (ΔΔG), VEGFR1 segment 218-228” value was -0.3 kcal/mol.

B4: VGFB78 (antibody, human IgG1, lambda, L234A L235A, V domains shown)
VH: EVQLLESGGGLVQPGGSLRLSCAASSFTFYNYDMTWVRQAPGKGLEWVAGIGTSGTDMYYADSVKGRFTISRDNSKNTLYLQMNSLRAEDTAIYYCAKDYYYYGMDVWGLGTTVTVSS
VL: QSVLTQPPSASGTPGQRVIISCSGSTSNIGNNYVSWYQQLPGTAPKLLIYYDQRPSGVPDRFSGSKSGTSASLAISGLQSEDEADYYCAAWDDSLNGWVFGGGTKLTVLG
notes: as for B1
Regarding B4, in the experiment with VGFW1, the “Free energy change upon binding (ΔΔG), VEGFR1 segment 141-147” value was -0.3 kcal/mol; the “Free energy change upon binding (ΔΔG), VEGFR1 segment 147-153” value is -0.6 kcal/mol; the “Free energy change upon binding (ΔΔG), VEGFR1 segment 172-177” value was -2.7 kcal/mol; the “Free energy change upon binding (ΔΔG), VEGFR1 segment 178-199” value is -1.1 kcal/mol. For the same molecule, in the experiment with VGFW1, the “Free energy change upon binding (ΔΔG), VEGFR1 segment 200-200” value was -2.9 kcal/mol; the “Free energy change upon binding (ΔΔG), VEGFR1 segment 201-204” value was -3.6 kcal/mol; the “Free energy change upon binding (ΔΔG), VEGFR1 segment 211-215” value turned out to be 0.1 kcal/mol; the “Free energy change upon binding (ΔΔG), VEGFR1 segment 218-228” value was -0.2 kcal/mol. In addition, in experiment [1], the Kd amounted to 0.00071 nM. Besides, the Kd in experiment [2] came to 0.00385 nM. Moreover, in the experiment with His tagged cyno VEGFR1, the IC50 came out at 0.134 nM and the “Max % Inh.” value came to 98.6%.

The record behind these values is US20240425603A1 (Janssen / Centocor, published 2024).
